The values below come from paper PMC9352680, “A comprehensive thermodynamic model for RNA binding by the Saccharomyces cerevisiae Pumilio protein PUF4”.

The labels stand for the following.
T1: PUF4 RNA-binding domain (Saccharomyces cerevisiae, UniProt P25339 537-888)
T1 sequence: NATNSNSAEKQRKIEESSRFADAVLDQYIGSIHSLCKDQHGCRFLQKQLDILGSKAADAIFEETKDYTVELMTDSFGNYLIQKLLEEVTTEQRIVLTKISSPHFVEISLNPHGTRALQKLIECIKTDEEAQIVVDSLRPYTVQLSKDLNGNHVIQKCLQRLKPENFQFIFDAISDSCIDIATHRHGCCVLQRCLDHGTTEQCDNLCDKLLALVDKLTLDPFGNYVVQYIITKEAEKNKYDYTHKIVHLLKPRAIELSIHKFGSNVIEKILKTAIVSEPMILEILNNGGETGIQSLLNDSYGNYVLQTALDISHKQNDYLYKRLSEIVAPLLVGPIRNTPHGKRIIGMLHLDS

B1: Ic_S1_P4E.1_K4.1_C4.1_H4.1_A4.1_[T5C]_[T7A]_F4.1_[T8A]_[A9C]_T4.1 (ssRNA)
RNA: UCUCUUUGUACAAACUCUCUU
B2: Ic_S1_P4E.1_K4.1_C4.1_H4.1_A4.1_[T5C]_[T7C]_F4.1_[T8G]_[A9C]_T4.1 (ssRNA)
RNA: UCUCUUUGUACACGCUCUCUU
B3: Ic_S1_P4E.1_K4.1_C4.1_H4.1_A4.1_[T5C]_F4.1_[T8C]_[A9T]_T4.1 (ssRNA)
RNA: UCUCUUUGUACAUCUUCUCUU
B4: Ic_S1_P4E.1_K4.1_C4.1_H4.1_A4.1_[T5C]_F4.1_[T8G]_[A9G]_T4.1 (ssRNA)
RNA: UCUCUUUGUACAUGGUCUCUU
B5: Ic_S1_P4E.1_K4.1_C4.1_H4.1_A4.1_[T5C]_[T7C]_F4.1_[T8C]_[A9C]_T4.1 (ssRNA)
RNA: UCUCUUUGUACACCCUCUCUU
B6: Ic_S1_P4E.1_K4.1_C4.1_H4.1_A4.1_[T5A]_[A6G]_[T7C]_F4.1_[A9G]_T4.1 (ssRNA)
RNA: UCUCUUUGUAAGCUGUCUCUU
B7: Ic_S1_P4E.1_K4.1_C4.1_H4.1_A4.1_[T5C]_[T7C]_F4.1_[T8G]_T4.1 (ssRNA)
RNA: UCUCUUUGUACACGAUCUCUU
B8: Ib_S1_P3E.1_K3.1_C3.1_H3.1_[G2A]_A3.1_F3.1_[A8G]_T3.1 (ssRNA)
RNA: UCUCUUUAUAUAUGUCUCUU
B9: Ic_S1_P4E.1_K4.1_C4.1_H4.1_A4.1_[T5C]_[T7A]_F4.1_[T8A]_[A9T]_T4.1 (ssRNA)
RNA: UCUCUUUGUACAAAUUCUCUU
B10: Ic_S1_P4E.1_K4.1_C4.1_H4.1_A4.1_[T5C]_[T7C]_F4.1_[T8G]_[A9G]_T4.1 (ssRNA)
RNA: UCUCUUUGUACACGGUCUCUU
B11: Ic_S1_P4E.1_K4.1_C4.1_H4.1_A4.1_[T5C]_[T7A]_F4.1_[T8C]_[A9C]_T4.1 (ssRNA)
RNA: UCUCUUUGUACAACCUCUCUU
B12: Ic_S1_P4E.1_K4.1_C4.1_H4.1_A4.1_[T5C]_[T7A]_F4.1_[A9T]_T4.1 (ssRNA)
RNA: UCUCUUUGUACAAUUUCUCUU
B13: Ic_S1_P4E.1_K4.1_C4.1_H4.1_A4.1_[T5C]_[T7G]_F4.1_[A9C]_T4.1 (ssRNA)
RNA: UCUCUUUGUACAGUCUCUCUU
B14: Ic_S1_P4E.1_K4.1_C4.1_H4.1_A4.1_[T5C]_[T7A]_F4.1_[T8C]_[A9G]_T4.1 (ssRNA)
RNA: UCUCUUUGUACAACGUCUCUU
B15: Ic_S1_P4E.1_K4.1_C4.1_H4.1_A4.1_[T5A]_[A6C]_[T7G]_F4.1_[A9C]_T4.1 (ssRNA)
RNA: UCUCUUUGUAACGUCUCUCUU
B16: Ib_S1_P3E.1_K3.1_C3.1_H3.1_[G2A]_A3.1_F3.1_[A8T]_T3.1 (ssRNA)
RNA: UCUCUUUAUAUAUUUCUCUU
B17: Ib_S1_P3E.1_K3.1_C3.1_H3.1_[G2C]_A3.1_F3.1_[A8T]_T3.1 (ssRNA)
RNA: UCUCUUUCUAUAUUUCUCUU
B18: Ic_S1_P4E.1_K4.1_C4.1_H4.1_A4.1_[T5C]_[T7A]_F4.1_[T8C]_[A9T]_T4.1 (ssRNA)
RNA: UCUCUUUGUACAACUUCUCUU
B19: Ic_S1_P4E.1_K4.1_C4.1_H4.1_A4.1_[T5C]_F4.1_[T8G]_[A9T]_T4.1 (ssRNA)
RNA: UCUCUUUGUACAUGUUCUCUU
B20: Ic_S1_P4E.1_K4.1_C4.1_H4.1_A4.1_[T5C]_[T7C]_F4.1_[T8A]_T4.1 (ssRNA)
RNA: UCUCUUUGUACACAAUCUCUU
B21: Ic_S1_P4E.1_K4.1_C4.1_H4.1_A4.1_[T5A]_[A6G]_[T7C]_F4.1_[T8C]_[A9C]_T4.1 (ssRNA)
RNA: UCUCUUUGUAAGCCCUCUCUU
B22: Ic_S1_P4E.1_K4.1_C4.1_H4.1_A4.1_[T5A]_[A6C]_[T7G]_F4.1_[T8A]_[A9T]_T4.1 (ssRNA)
RNA: UCUCUUUGUAACGAUUCUCUU
B23: Ic_S1_P4E.1_K4.1_C4.1_H4.1_A4.1_[T5A]_[A6G]_[T7C]_F4.1_T4.1 (ssRNA)
RNA: UCUCUUUGUAAGCUAUCUCUU
B24: Ic_S1_P4E.1_K4.1_C4.1_H4.1_A4.1_[T5C]_[T7A]_F4.1_[T8C]_T4.1 (ssRNA)
RNA: UCUCUUUGUACAACAUCUCUU
B25: Ic_S1_P4E.1_K4.1_C4.1_H4.1_A4.1_[T5C]_[T7A]_F4.1_[A9G]_T4.1 (ssRNA)
RNA: UCUCUUUGUACAAUGUCUCUU
B26: Ib_S1_P3E.1_K3.1_C3.1_H3.1_[G2T]_A3.1_F3.1_[A8C]_T3.1 (ssRNA)
RNA: UCUCUUUUUAUAUCUCUCUU
B27: Ic_S1_P4E.1_K4.1_C4.1_H4.1_A4.1_[T5C]_[T7A]_F4.1_[A9C]_T4.1 (ssRNA)
RNA: UCUCUUUGUACAAUCUCUCUU
B28: Ic_S1_P4E.1_K4.1_C4.1_H4.1_A4.1_[T5A]_[A6C]_[T7G]_F4.1_[T8C]_[A9C]_T4.1 (ssRNA)
RNA: UCUCUUUGUAACGCCUCUCUU
B29: Ic_S1_P4E.1_K4.1_C4.1_H4.1_A4.1_[T5C]_[T7A]_F4.1_[T8A]_T4.1 (ssRNA)
RNA: UCUCUUUGUACAAAAUCUCUU
B30: Ic_S1_P4E.1_K4.1_C4.1_H4.1_A4.1_[T5C]_[T7C]_F4.1_[A9G]_T4.1 (ssRNA)
RNA: UCUCUUUGUACACUGUCUCUU
B31: Ic_S1_P4E.1_K4.1_C4.1_H4.1_A4.1_[T5C]_F4.1_[T8C]_[A9C]_T4.1 (ssRNA)
RNA: UCUCUUUGUACAUCCUCUCUU
B32: Ic_S1_P4E.1_K4.1_C4.1_H4.1_A4.1_[T5A]_[A6G]_[T7C]_F4.1_[T8A]_[A9C]_T4.1 (ssRNA)
RNA: UCUCUUUGUAAGCACUCUCUU
B33: Ic_S1_P4E.1_K4.1_C4.1_H4.1_A4.1_[T5A]_[A6G]_[T7C]_F4.1_[T8C]_T4.1 (ssRNA)
RNA: UCUCUUUGUAAGCCAUCUCUU
B34: Ic_S1_P4E.1_K4.1_C4.1_H4.1_A4.1_[T5C]_[T7C]_F4.1_[T8C]_[A9G]_T4.1 (ssRNA)
RNA: UCUCUUUGUACACCGUCUCUU
B35: Ic_S1_P4E.1_K4.1_C4.1_H4.1_A4.1_[T5A]_[A6C]_[T7G]_F4.1_[A9G]_T4.1 (ssRNA)
RNA: UCUCUUUGUAACGUGUCUCUU
B36: Ic_S1_P4E.1_K4.1_C4.1_H4.1_A4.1_[T5C]_F4.1_[T8A]_[A9G]_T4.1 (ssRNA)
RNA: UCUCUUUGUACAUAGUCUCUU
B37: Ic_S1_P4E.1_K4.1_C4.1_H4.1_A4.1_[T5C]_[T7C]_F4.1_[T8A]_[A9T]_T4.1 (ssRNA)
RNA: UCUCUUUGUACACAUUCUCUU
B38: Ic_S1_P4E.1_K4.1_C4.1_H4.1_A4.1_[T5C]_[T7G]_F4.1_[A9G]_T4.1 (ssRNA)
RNA: UCUCUUUGUACAGUGUCUCUU
B39: Ic_S1_P4E.1_K4.1_C4.1_H4.1_A4.1_[T5C]_F4.1_[T8G]_[A9C]_T4.1 (ssRNA)
RNA: UCUCUUUGUACAUGCUCUCUU
B40: Ic_S1_P4E.1_K4.1_C4.1_H4.1_A4.1_[T5C]_[T7C]_F4.1_[A9T]_T4.1 (ssRNA)
RNA: UCUCUUUGUACACUUUCUCUU
B41: Ic_S1_P4E.1_K4.1_C4.1_H4.1_A4.1_[T5C]_[T7C]_F4.1_[A9C]_T4.1 (ssRNA)
RNA: UCUCUUUGUACACUCUCUCUU
B42: Ic_S1_P4E.1_K4.1_C4.1_H4.1_A4.1_[T5C]_[T7A]_F4.1_[T8G]_[A9C]_T4.1 (ssRNA)
RNA: UCUCUUUGUACAAGCUCUCUU
B43: Ic_S1_P4E.1_K4.1_C4.1_H4.1_A4.1_[T5C]_[T7G]_F4.1_[A9T]_T4.1 (ssRNA)
RNA: UCUCUUUGUACAGUUUCUCUU
B44: Ic_S1_P4E.1_K4.1_C4.1_H4.1_A4.1_[T5A]_[A6C]_[T7G]_F4.1_[T8C]_[A9T]_T4.1 (ssRNA)
RNA: UCUCUUUGUAACGCUUCUCUU
B45: Ic_S1_P4E.1_K4.1_C4.1_H4.1_A4.1_[T5A]_[A6G]_[T7C]_F4.1_[A9C]_T4.1 (ssRNA)
RNA: UCUCUUUGUAAGCUCUCUCUU
B46: Ic_S1_P4E.1_K4.1_C4.1_H4.1_A4.1_[T5A]_[A6C]_[T7G]_F4.1_[T8C]_[A9G]_T4.1 (ssRNA)
RNA: UCUCUUUGUAACGCGUCUCUU

The target in this data set is T1, PUF4 RNA-binding domain. Kind of data set: Mg; RNA-MaP; 20 mM Na-HEPES pH 7.4, 30 mM KOAc, 0.75 mM MgCl2, 0.1% Tween-20, 5% glycerol, 0.1 mg/mL BSA, 2 mM DTT; 25 C; 0.0125-409.6 nM protein. The conditions noted are these: tags: N-His6-TEV cleaved; C-SNAP kept, Cy3B-labelled; label: tethered on chip by stalled RNA polymerase.
Broadly, the Kd is the concentration at which binding is half-saturated. Higher therefore signals a looser complex. Regarding B1, binding was characterised by a dissociation constant (Kd) of 142 nM. This counts as sub-micromolar.
With B2 the figure was 145 nM.
With B3 the figure was 21.1 nM; with B4, 59.6 nM.
With B5 the figure was 118 nM.
B6 registered a Kd of 544 nM. This Kd lies about 4.6-fold higher than the previous one.
With B7 the figure was 60.9 nM; with B8, greater than 2300 nM.
With B9 the figure was 125 nM; with B10, 468 nM; with B11, 81 nM.
In the case of B12, the Kd came to 11.2 nM.
With B13 the figure was 17 nM; with B14, 92.3 nM.
Turning to B15, the Kd came out at 789 nM.
The figure for B16 is 696 nM; for B17 it is greater than 2300 nM.
The figure for B18 is 33.9 nM; for B19 it is 20.9 nM.
The figure for B20 is 17.1 nM; for B21 it is 2290 nM; for B22 it is 884 nM.
Turning to B23, binding was put at a Kd of 26.5 nM.
With B24 the figure was 14.4 nM; with B25, 7.97 nM.
With B26 the figure was greater than 2300 nM; with B27, 16.7 nM; with B28, 2000 nM.
With B29 the figure was 34.1 nM; with B30, 5.05 nM.
In turn, B31 gave a dissociation constant (Kd) of 29.5 nM.
The figure for B32 is 1880 nM.
The figure for B33 is 515 nM.
The figure for B34 is 407 nM; for B35 it is 758 nM; for B36 it is 5.5 nM.
Turning to B37, the Kd came to 22.6 nM.
The figure for B38 is 16.5 nM; for B39 it is 28.6 nM.
The figure for B40 is 7.32 nM; for B41 it is 8.95 nM.
The figure for B42 is 692 nM; for B43 it is 13.3 nM.
In the case of B44, the Kd turned out to be 581 nM.
With B45 the figure was 1840 nM.
The figure for B46 is greater than 2300 nM.
